The values that follow come from US20220023406A1.

This assay concerns the target HB-EGF receptor for diptheria toxin/CRM197 (heparin-binding epidermal growth factor-like precursor) on OV90 ovarian cancer cells (UniProt Q99075). The assay is described as follows: cell-based or functional assay.
Chain of UniProt Q99075 (Q99075 63-148 limits assumed): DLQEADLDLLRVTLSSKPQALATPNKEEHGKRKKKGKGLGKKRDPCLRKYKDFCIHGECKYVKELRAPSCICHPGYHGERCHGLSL

“CRM197-Alexa488 (from UniProt P00587 26-560)” displayed a labelling of OV90 tumor cells with CRM197-Alexa488 after 24 hours (flow cytometry, 10 µg/mL, without trypan blue) of 98.2%; a percentage of CRM197-Alexa488 uptake by OV90 tumor cells after 4 hours (flow cytometry, 10 µg/mL, without trypan blue) of 82%; a percentage of OV90 cells with intracellular CRM197-Alexa488 after 4 hours (flow cytometry, with trypan blue quenching) of 72.7%; a percentage of OV90 cells with intracellular CRM197-Alexa488 after 24 hours (flow cytometry, with trypan blue quenching) of 97.6%.
